Data taken from paper PMC12661054, “The CIP2A-TOPBP1 axis facilitates mitotic DNA repair via MiDAS and MMEJ” (Nature Communications, 2025).
Square brackets hold non-standard residues; d marks the D form. Ends that are not written are not given here. fluorescein = fluorescein label on the N-terminus; pT = C[C@@H](OP(=O)(O)O)[C@H](N)C(=O)O

Target: T1, GST-TOPBP1(BRCT0-2 1-290) WT (human, UniProt Q92547 1-290)
T1 construct: TOPBP1, human, residues 1-290 (BRCT0-2); expressed from pGEX-6P-1, eluted with glutathione, no cleavage described; also called TOPBP1 BRCT0-1-2; TOPBP1 BRCT 0-1-2 WT; source: E. coli BL21(DE3), purified (HiTrap GST, Superdex 200)
Test: fluorescence polarisation; 100 nM fluorescein-labelled SLX4 peptide, increasing concentrations of TOPBP1 BRCT fragment; room temperature; 25 mM HEPES pH 7.5, 150 mM NaCl, 1 mM EDTA, 0.25 mM TCEP, 0.002% Tween 20; single site with non-specific component
Settings: both partners purified

B1: Flu-SLX4_pT1260 (peptide)
peptide: fluorescein-GYGTSWLVPA[pT]PLASRSR
modifications: also: phosphothreonine at Thr1260 (position 4 or 11)
notes: residues before the SLX4 stretch, not SLX4; SLX4, human, amino acids 1253-1267, pT1260; also called fluorescein tagged SLX4 pT1260-containing peptide; pThr1260 SLX4 peptide; source: synthetic peptide
B1: binds.
